# Positions count from the first letter of the chain named.
# T1: YeaW variant K117S (E. coli, UniProt P0ABR7 1-374, K117S)
# T1 sequence (looked up): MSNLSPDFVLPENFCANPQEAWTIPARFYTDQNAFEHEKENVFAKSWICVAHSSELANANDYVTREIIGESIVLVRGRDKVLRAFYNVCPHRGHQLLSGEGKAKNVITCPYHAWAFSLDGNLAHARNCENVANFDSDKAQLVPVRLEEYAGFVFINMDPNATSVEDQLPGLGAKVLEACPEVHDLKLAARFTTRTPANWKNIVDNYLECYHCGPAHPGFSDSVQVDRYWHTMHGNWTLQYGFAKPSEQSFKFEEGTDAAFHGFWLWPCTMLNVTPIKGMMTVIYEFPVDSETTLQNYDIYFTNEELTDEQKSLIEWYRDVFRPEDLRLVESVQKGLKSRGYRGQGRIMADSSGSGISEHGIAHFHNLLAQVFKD
# T2: YeaW variant R83Q (E. coli, UniProt P0ABR7 1-374, R83Q)
# T2 sequence (looked up): T1 sequence (looked up) with R83Q, S117K
# T3: YeaW variant E330K (E. coli, UniProt P0ABR7 1-374, E330K)
# T3 sequence (looked up): T1 sequence (looked up) with S117K, E330K
# T4: YeaW variant K117E (E. coli, UniProt P0ABR7 1-374, K117E)
# T4 sequence (looked up): T1 sequence (looked up) with S117E
# T5: YeaW variant E330S (E. coli, UniProt P0ABR7 1-374, E330S)
# T5 sequence (looked up): T1 sequence (looked up) with S117K, E330S
# T6: YeaW variant K104E (E. coli, UniProt P0ABR7 1-374, K104E)
# T6 sequence (looked up): T1 sequence (looked up) with K104E, S117K
# T7: YeaW variant D221K (E. coli, UniProt P0ABR7 1-374, D221K)
# T7 sequence (looked up): T1 sequence (looked up) with S117K, D221K
# B1: YeaX, reductase component of carnitine monooxygenase from E. coli (enzyme, UniProt P76254 1-321, looked up)
# chain: MSDYQMFEVQVSQVEPLTEQVKRFTLVATDGKPLPAFTGGSHVIVQMSDGDNQYSNAYSLLSSPHDTSCYQIAVRLEENSRGGSRFLHQQVKVGDRLTISTPNNLFALIPSARKHLFIAGGIGITPFLSHMAELQHSDVDWQLHYCSRNPESCAFRDELVQHPQAEKVHLHHSSTGTRLELARLLADIEPGTHVYTCGPEALIEAVRSEAARLDIAADTLHFEQFAIEDKTGDAFTLVLARSGKEFVVPEEMTILQVIENNKAAKVECLCREGVCGTCETAILEGEADHRDQYFSDEERASQQSMLICCSRAKGKRLVLDL
# Assays:
# Test in all cases: cell-based or functional assay
# YeaW variant K117S = molecular target: T1, YeaW variant K117S
# YeaW variant R83Q = molecular target: T2, YeaW variant R83Q
# YeaW variant E330K = molecular target: T3, YeaW variant E330K
# YeaW variant K117E = molecular target: T4, YeaW variant K117E
# YeaW variant E330S = molecular target: T5, YeaW variant E330S
# YeaW variant K104E = molecular target: T6, YeaW variant K104E
# YeaW variant D221K = molecular target: T7, YeaW variant D221K
binder,measurement,setting,value
B1,L-carnitine depletion activity (wild type = 100%),YeaW variant K117S,122%
same,O2 depletion activity (wild type = 100%),YeaW variant K117S,109%
same,L-carnitine depletion activity (wild type = 100%),YeaW variant R83Q,51%
same,O2 depletion activity (wild type = 100%),YeaW variant R83Q,59%
same,L-carnitine depletion activity (wild type = 100%),YeaW variant E330K,55%
same,O2 depletion activity (wild type = 100%),YeaW variant E330K,67%
same,L-carnitine depletion activity (wild type = 100%),YeaW variant K117E,63%
same,O2 depletion activity (wild type = 100%),YeaW variant K117E,75%
same,L-carnitine depletion activity (wild type = 100%),YeaW variant E330S,92%
same,O2 depletion activity (wild type = 100%),YeaW variant E330S,85%
same,L-carnitine depletion activity (wild type = 100%),YeaW variant K104E,6%
same,O2 depletion activity (wild type = 100%),YeaW variant K104E,12%
same,L-carnitine depletion activity (wild type = 100%),YeaW variant D221K,81%
same,O2 depletion activity (wild type = 100%),YeaW variant D221K,76%
